From publication PMC5132288, “Identification, Heterologous Expression, and Functional Characterization of Bacillus subtilis YutF, a HAD Superfamily 5'-Nucleotidase with Broad Substrate Specificity” (PLoS ONE, 2016)

Key:
Assay type in all cases: biochemical, Bacillus subtilis
[1] = substrate: O=P(O)(O)OC[C@H]1O[C@H](OP(=O)(O)OP(=O)(O)O)[C@H](O)[C@@H]1O; assay: colorimetric inorganic phosphate release, nonlinear regression; details: 100 mM MES pH 6.0, 5 mM MgCl2, 37°C
Source text: (§1) colorimetric inorganic phosphate release, nonlinear regression on Ht-YutF (recombinant YutF, N-terminal hexahistidine tag)

[2] = substrate: Nc1nc2c(ncn2[C@@H]2O[C@H](COP(=O)(O)O)[C@@H](O)[C@H]2O)c(=O)[nH]1; assay: as above; details: 100 mM MES pH 6.0, 5 mM MgCl2, 37°C
Source text: as §1

[3] = substrate: O=c1[nH]c(=O)c2ncn([C@@H]3O[C@H](COP(=O)(O)O)[C@@H](O)[C@H]3O)c2[nH]1; assay: as above; details: 100 mM MES pH 6.0, 5 mM MgCl2, 37°C
Source text: as §1

[4] = substrate: O=[N+]([O-])c1ccc(OP(=O)(O)O)cc1; assay: purified protein; details: 100 mM Tris-HCl pH 8.9, 5 mM MgCl2, 25°C

B1: Ht-YutF (recombinant YutF, N-terminal hexahistidine tag) (Bacillus subtilis subsp. subtilis str. 168) (protein)
chain: KTYKGYLIDLDGTMYNGTEKIEEACEFVRTLKDRGVPYLFVTNNSSRTPKQVADKLVSFDIPATEEQVFTTSMATAQHIAQQKKDASVYVIGEEGIRQAIEENGLTFGGENADFVVVGIDRSITYEKFAVGCLAIRNGARFISTNGDIAIPTERGLLPGNGSLTSVLTVSTGVQPVFIGKPESIIMEQAMRVLGTDVSETLMVGDNYATDIMAGINAGMDTLLVHTGVTKREHMTDDMEKPTHAIDSLTEWIPYI
Km [1]: 1270 ± 100 µM
kcat [1]: 0.17 ± 0.01 s⁻¹
kcat/Km [1]: 130 M⁻¹ s⁻¹
Km [2]: 6650 ± 1260 µM
kcat [2]: 0.06 ± 0.01 s⁻¹
kcat/Km [2]: 9 M⁻¹ s⁻¹
Km [3]: 1530 ± 110 µM
kcat [3]: 0.31 ± 0.01 s⁻¹
kcat/Km [3]: 210 M⁻¹ s⁻¹
Km [4]: 1640 ± 60 µM
kcat [4]: 61 ± 1 s⁻¹
kcat/Km [4]: 37000 M⁻¹ s⁻¹
